Data published in the DeepSol protein solubility set.

Test: soluble on expression in E. coli; label from the status in PepcDB or PDB records

Soluble on expression in E. coli, not soluble:
MGSDKIHHHHHHMTVHHHHHTHHVSLHKIKKLFSKHSSHGHKLTRDEARSALHDIEHLAKELHFQKVFDHHAHDGHISLKGFLSFISPHHGHHTHHAHGAHPGHHEVHHHHHHVKAQDSSSSSSSSSSSSSSSSSSSSSSSSSSSESEDEKHHHKKHAKKHLKKHHKKAESSSSSSSSSSSSSSSSSSSSSSESEDEKHHHKKHAKKHLKKHHKKAESSSSSSSSSSSSSSSSSSSSSSSESEDEKHHHKKHAVKKHHKKAESSSSSSSSSSSSSSSSSSEDEKHHHKKHAAKKHVKHHKKAASSSSSSSSSSSSSSSSSSSSSSESEDEKKKKKVHHKKSHGKKHHKKAASSSSSSSSSSSSSSSSSSSESEDEKKHAPAHHEHHEHKDGAHHEHKEGEHHEHAAHHDEHGVHHRHHGEHHGTHHSPAHHGEHGTHHGHHGEHHHAPAHHGHHESHGHGHHSPAHHGHHGEHHHAPAHHGHHGEHHHAPAHHGHHGEHGTHHGHHGSHHSPAHHGHHGEHHHAPAHHGHHGEHGTHHGHHGEHHHAPAHHGHHGEHGTHHGHHGSHHSPAHHGHHGEHHHAPAHHGHHGHHGSHGVHHGHHESHGHGHHAPAHHGHHGEHGVHHGHHGAGYGAHHGHHGAHHHHAPHHEHHEHHGDHHHGSHGVHHGHHGTHHSLAHHGHHGGHGTHHGAHHSPAHHGHHGAHHEHGAHHGAHHGHHDDKENHHHHGHHSKHSKKQHTKKSHKKSH
MGSDKIHHHHHHMTVPPRVSAGEVFQHFRGTSPLTRARLSALTGLSRAATTDRMRTLASRGLIGPANEAPSTGGRPSAQFRLMPNSGAVMSVLLGASEAKVQAFDLSGQPLSAAKPVETVRGGYAAILDSCLASAYSLLDSMDDISGQLVATGVVLDEGAPDLDWPEYFAGRPVVVDSALGAMATAEALSRTPRPQNMLFLDVGKTIGCAVLVHGRTMGGFRTSKEAFGHTPGKGTPTLPCACGIMNCLQAIAGEEAIIAGLSSDLADEPDAISGAVRRSDAAAVSALRQAGRDIGDTLLGSIHLLQPEFITVRTRWPGAADFLLAGLREAIYASGVPAVTENLVLASSTTGSPATGIALRALDAGLAVESVDRLLSAPPNLSGQRNYWPAPLKSIDRQRHAS
MGSDKIHHHHHHMVDIHSHIIPGIDDGSNSLETTLNMMSIAKEAGVTKMVATSHYYRGKFENSISVIEKKANELNYTLKEKGVDIDVIPGQEVFIDNYTLKDYKEGIIGTINNTDYMLVEFDMMSLGENAIDTLYELQIKGIKPIIAHPERYTYIQKDIYKINELMDENIYFQVNAGSIEGLFGKTVQKTALKLVEEGVISFIASDAHSAGKRCPGYEKALHDLTKIDKTLAEKFIKNSNLLLENEKIENKVRKLKKKKTFFSFLK
MGSDKIHHHHHHMVEIINPFDGGGYSLAEMTQAINILPNLYTRLGQMGLFRFEGVTQRSVIIEQAEGVLNLLPTVPLGGPATVANRDARSMRSFTVPWIPHDDSITPQDVQGVRGFGVADAADPLATVMERKLTRMRTKHAQTREFMEINALRGIVRDGSGSTLYDYFAEFGLVRQQVDFALGTAATNVQAKIREVLRLVEVELKGETMTSVTALVSPAFFDKLISHPKVESAYQYFSSTGAQPLREDVRRRFPFAGMVFEEYNATVTLATGSNETLVPAGEGIAFPLGTTDTFVTYGAPANLIETVNTMGLPMYARQLARQDGSAIDVKTEASILPVNKRPRLAVRIFSGN
MGSDKIHHHHHHMVINIEQAIAWMASRKGKVTYSMDYRNGPSSYDCSSSVYFALRSAGASDNGWAVNTEYEHDWLIKNGYVLIAENTNWNAQRGDIFIWGKRGASAGAFGHTGMFVDPDNIIHCNYGYNSITVNNHDEIWGYNGQPYVYAYRYARKQSNAKVDNQSVVSKFEKELDVNTPLSNSNMPYYEATISEDYYVESKPDVNSTDKELLVAGTRVRVYEKVKGWARIGAPQSNQWVEDAYLIDATDM
MGSDKIHHHHHHMVKVVKFGGSSLANAAQYQKVIEILRADPERRIVVVSAPGKRFKDDVKVTDLLIKYANASGENVKVARQAVLDRYQEIADAYHVSDSDFEQINVHLIDLANLHHANKACRLAHFKAAGERLNAILMALVLKKFNVTARFVDPKQLGIKAHGDYNNAILDQHSYAQIEAVCSNLLDEAEYLVVPGFYAYNQNGEVCTFSRGGSDITGAILARGFQAQLYENFTDVDSIYSADPKIIAQPHPIREMTYREMRELAYAGFSVFHDEAIIPAIEAQVPIVIKNTDHPNLPGTVIEPEQNYASDLEITGVASSSRFAALYIHKYLLNREVGFTLKLLKILYRYDISYEHMPSGIDDLTIIFNQNQITDEILPSLLSDIREELHTDQLEWIDDYAILMVVGEGMRDKVGVVDRIVNALARKQIGIQMINQGASRISTMLGVHQNQVNQAVREIYREFFKNKGRAD
MGSDKIHHHHHHMVKYSGVCILFGAGGGGENALSLLKLEGCNISAIVDNDLKKHNTFLDDTPIYAPEKLNCDLIFDKILIASGYSKSILAQLGQYNISQERIIVLPQYYLKPNRFSDQVLYSLAWDFIFSFSELMNKLNIRYWLDYGTLLGLVRDNDLISWDSDLDFCILDENKGYLINSFSVISEHISSTIGCDVKIELIKGAECEHSRVFISCNRDNVILDIDVFIKFNFSNFVCLEVMDRVERYNAEHYVAVDFLNVKGISLPVPNKYDQYLTRVYGSWCVANKEWTLYS
MGSDKIHHHHHHMVLVVAGFDPSGGAGIIQDVKVLSALGVKTHAVISALTVQNENRVFSVNFRDWEEMRKEIEVLTPPRVIKVGLSAPETVKRLREMFPDSAIVWNVVLESSSGFGFQDPEEVKKFVEYADYVILNSEEAKKLGEYNNFIVTGGHEKGNTVKVKYRDFVFEIPRVPGEFHGTGCAFSSAVSGFLAMSYPVEEAIRSAMELLKKILERSSGVVETEKLLRDWYRYDTLNTLDEILPEFLEIGHLTVPEVGQNVSYALPWAKNEFEVGKFPGRIRLKEGKAVAVSCASFKDRSHTARMAVTMMRYHPHMRCVVNVRYEREYVERAKKRGLKVFHYDRSKEPKEVQEKEGQSMVWMIEQAIAELKSPPDVIYDEGWWGKEAMIRVFGRNPKEVLEKIKLMVRE
MGSDKIHHHHHHMVMYLENPGKLDRKFFTESILRYTGYRRPEDKVPPKNGVDTGIISIGNGKVMAVTTDPFYFDPVFGYEDSAWFAYHILASDITTAGVYPEYMTVDLNLPISISNEEIARMWKTVHEEAYKYKTSIITGHTARYANTGFPMVGGATMFGFTDDDKYVTTAMARPGDIMIMTKTAGIEAASLLTRIFPNHVKKNLGEDKYRYGFELFRKLSTVDEAIQAIEFGTRKAITSMHDATEGGLLGAVYEVAEASGNGVSIDKEAIHVDDYVKEIHSLFGIDPLRSISEGTLLMTIDPEYADEFMKRLTKSGIDSYVIGKMTTKDEGIKFKDGSEPIGEPEKDPFWYAVEKSMKMGLS
MGSDKIHHHHHHMVSLMEHGMLPDAVIRSGIRRLLMKRLQEESCGDTEADRARQREFFEQLSHSPLAMETGAANKQHYELPPDFFSLVLGPRRKYSCCLYPPGVDDLATAEEAMLRLTCQRAGLADGMDILELGCGWGSLTLWMAEHYPDARITAVSNSAPQRQFIQGACRGRGFGNVRVITADMNDFTIEKTFDRVVSVEMFEHMRNYAELLRRIAGWLKDDGRLFVHIFCHRTLAYLFQTDGEDDWMGRYFFTGGIMPSDHLLFYFNDHLAVEDHWRVGGRHYQRTCDGWLERMDTERRKILEIFWDVYEGDAPVWFQRWRVFFMACSELFGYSEGNEWFVSHYLLRKNSAGVLCGNRQKALSFSGVCK
MGSDKIHHHHHHMVVNLTYMLNTEDRKFIIDSVKKGYKVTELARMFNVTPRRIQQILHESEMPESAKDSELTDEEKKFIDDLWDRYRIGSRTIYYLLRSKGLNVSYYKIYNYMKMKRMVQIKDNALIVNGKKAEPPLSTVLLDYHQKNFNDQYAIFCVDMTTKKILSYAESVKITSDVVSGVL
MGSDKIHHHHHHMVVSIGVFDGVHIGHQKVLRTMKEIAFFRKDDSLIYTISYPPEYFLPDFPGLLMTVESRVEMLSRYARTVVLDFFRIKDLTPEGFVERYLSGVSAVVVGRDFRFGKNASGNASFLRKKGVEVYEIEDVVVQGKRVSSSLIRNLVQEGRVEEIPAYLGRYFEIEGIVHKDREFGRKLGFPTANIDRGNEKLVDLKRGVYLVRVHLPDGKKKFGVMNVGFRPTVGDARNVKYEVYILDFEGDLYGQRLKLEVLKFMRDEKKFDSIEELKAAIDQDVKSARNMIDDIINSKFEKEG
